Laboratory results reported in the supplement of paper PMC7877785.
± gives the uncertainty stated by the source.

Assay: self-splicing fitness, log relative to wild type (ln ratio); higher = more splicing; Tetrahymena group I intron in knt gene, E. coli kanamycin selection, DiMSum; sequences stand for … in CUCUCU…GGAGGGAAAAGUUAUCAGGCAUGCACCUGGUAGCUAGUCUUUAAACCAAUAGAUUGCAUCGGUUUAAAAGGCAAGACCGUCAAAUUGCGGGAAAGGGGUCAACAGCCGUUCAGUACCAAGUCUCAGGGGAAACUUUGAGAUGGCCUUGCAAAGGGUAUGGUAAUAAGCUGACGGACAUGGUCCUAACCACGCAGCCAAGUCCUAAGUCAACAGAUCUUCUGUUGAUAUGGAUGCAGUUCACAGACUAAAUGUCGGUCGGGGAAGAUGUAUUCUUCUCAUAAGAUAUAGUCGGACCUCUCCUUAAUGGGAGCUAGCGGAUGAAGUGAUGCAACACUGGAGCCGCUGGGAACUAAUUUGUAUGCGAAAGUAUAUUGAUUAGUUUUGGAGUACUCGUGGUCG
In short: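 Pooled colonies went to amplicon sequencing on an Illumina HiSeq 2500 after six replicate transformations. The plates were LB agar with 100 μg/mL carbenicillin, 50 μM IPTG and 0.2% rhamnose, with or without 25 μg/mL kanamycin, incubated overnight at 37°C or 30°C. The E. coli BL21(DE3) library had all eight P1ex-region intron nucleotides randomised, the intron placed in the knt kanamycin-resistance gene on pET-22b(+). DiMSum fitness is the error-weighted combination of replicate fold changes, kanamycin against none, normalised to wild type.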

| Sequence | self-splicing fitness (ln) (30 °C) | self-splicing fitness (ln) (37 °C) |
| --- | --- | --- |
| ACUUAGCAAUAUUACGCCAU | -2.99 ± 0.35 | -2.52 ± 0.38 |
| ACUUAGCAAUAUUACGCCCU | -0.568 ± 0.16 | 0.0637 ± 0.28 |
| ACUUAGCAAUAUUACGCCGG | -1.08 ± 0.14 | -0.478 ± 0.18 |
| ACUUAGCAAUAUUACGCCUU | -0.353 ± 0.095 | -0.14 ± 0.11 |
| ACUUAGCAAUAUUACGCGAA | -1.74 ± 0.12 | -2.14 ± 0.2 |
| ACUUAGCAAUAUUACGCUGA | -2.63 ± 0.49 | – |
| ACUUAGCAAUAUUACGGACA | -1.46 ± 0.14 | -0.798 ± 0.14 |
| ACUUAGCAAUAUUACGGACU | -0.341 ± 0.096 | 0.14 ± 0.16 |
| ACUUAGCAAUAUUACGGCAA | -0.92 ± 0.16 | -1.31 ± 0.23 |
| ACUUAGCAAUAUUACGGCCU | -0.24 ± 0.1 | 0.312 ± 0.11 |
| ACUUAGCAAUAUUACGGCUU | -0.359 ± 0.14 | -0.614 ± 0.19 |
| ACUUAGCAAUAUUACGGGGA | -1.38 ± 0.12 | -1.18 ± 0.15 |
| ACUUAGCAAUAUUACGGUGC | -3.78 ± 0.24 | -1.06 ± 0.17 |
| ACUUAGCAAUAUUACGUAGC | -2.76 ± 0.12 | -1.58 ± 0.13 |
| ACUUAGCAAUAUUACGUAUU | -2.02 ± 0.12 | -2.26 ± 0.17 |
| ACUUAGCAAUAUUACGUCGU | -1.99 ± 0.079 | -1.28 ± 0.088 |
| ACUUAGCAAUAUUACGUGCC | -0.96 ± 0.13 | -1.4 ± 0.15 |
| ACUUAGCAAUAUUACGUUGG | -1.67 ± 0.079 | -1.05 ± 0.11 |
| AGAAAGCAAUAUUACGAAUG | -2.38 ± 0.15 | -2.25 ± 0.19 |

| Sequence | self-splicing fitness (ln) (30 °C) | self-splicing fitness (ln) (37 °C) |
| --- | --- | --- |
| AGAAAGCAAUAUUACGACCA | -0.541 ± 0.11 | 0.144 ± 0.15 |
| AGAAAGCAAUAUUACGAUCA | 0.101 ± 0.083 | 0.0881 ± 0.11 |
| AGAAAGCAAUAUUACGAUGG | -2.28 ± 0.15 | -3.17 ± 0.35 |
| AGAAAGCAAUAUUACGCCAA | -3.75 ± 0.17 | -2.91 ± 0.069 |
| AGAAAGCAAUAUUACGCGAC | -2.25 ± 0.15 | -1.65 ± 0.18 |
| AGAAAGCAAUAUUACGCGCC | -0.784 ± 0.11 | 0.139 ± 0.14 |
| AGAAAGCAAUAUUACGCUCG | 0.431 ± 0.14 | 0.318 ± 0.18 |
| AGAAAGCAAUAUUACGGACG | -0.883 ± 0.085 | -0.116 ± 0.13 |
| AGAAAGCAAUAUUACGUAUU | -2.59 ± 0.13 | -1.27 ± 0.14 |
| AGAAAGCAAUAUUACGUGCG | -0.896 ± 0.092 | -0.684 ± 0.11 |
| AGAAAGCAAUAUUACGUGUA | -2.13 ± 0.1 | -0.737 ± 0.094 |
| AGAAAGCAAUAUUACGUUGC | -4 ± 0.13 | -3.36 ± 0.15 |
| AGACAGCAAUAUUACGAGAC | – | -1.59 ± 0.37 |
| AGACAGCAAUAUUACGAGUA | -3.42 ± 0.21 | -1.47 ± 0.15 |
| AGACAGCAAUAUUACGAUGU | -3.43 ± 0.12 | -0.886 ± 0.088 |
| AGACAGCAAUAUUACGAUUC | -1.12 ± 0.08 | -0.569 ± 0.11 |
| AGACAGCAAUAUUACGCACA | -0.582 ± 0.079 | -0.0964 ± 0.099 |
| AGACAGCAAUAUUACGCACG | -2.11 ± 0.12 | -0.922 ± 0.13 |
| AGACAGCAAUAUUACGCCCC | -0.804 ± 0.24 | 0.31 ± 0.26 |
